Measurements as given in PMC6032885.

Biological target: TbAlsin (T. brucei)
Test: co-IP; equal volumes (10 uL each) of in vitro translated 35S-Met-labelled HA-tagged TbVps9 protein (bait) and TbRab (prey) mixed, 1 h at room temperature; anti-HA polyclonal antibody and protein A beads; 7 washes with 50 mM Tris pH 7.5, 150 mM NaCl, 10 mM EDTA, 0.1% Triton X-100, 10 mM MgCl2; SDS-PAGE and autoradiography

With TbRab5A^SN (natural protein) as the substance, how does the percent of TbAlsin bound read?
The percent of TbAlsin bound was 50%.
